T1: his-tagged gremlin^C141A mutant, rat (rat, UniProt O35793 25-184, C141A)
T1 construct: secreted into the medium; monomer; also called gremlin^C141A monomer; monomeric gremlin^C141A; not shown: His tag, C-terminal, kept
T1 sequence (looked up): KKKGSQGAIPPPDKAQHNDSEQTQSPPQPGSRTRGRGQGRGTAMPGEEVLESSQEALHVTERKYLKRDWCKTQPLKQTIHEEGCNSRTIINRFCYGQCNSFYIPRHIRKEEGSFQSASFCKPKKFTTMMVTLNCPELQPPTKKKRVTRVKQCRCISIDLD

B1: his-tagged gremlin^C141A mutant, rat (natural protein)
chain: T1 sequence (looked up)
B2: his-tagged wild-type gremlin (gremlin^WT), rat (natural protein, UniProt O35793 25-184, looked up)
chain: T1 sequence (looked up) with A117C
notes: secreted into the medium; covalent homodimer through Cys141; The IMAC-purified preparation holds monomer and dimer (used for non-reducing SDS-PAGE and SEC); the heparin 1.2 M NaCl fraction holds only the disulfide-linked dimer (98.5% purity) and is the form used in ELISA, SPR and cell assays; N-glycosylated and non-glycosylated forms are present; also called gremlin^WT dimer; dimeric gremlin^WT; …
B3: endogenous murine gremlin (natural protein, UniProt O70326 25-184, looked up)
chain: T1 sequence (looked up) with A117C
notes: gremlin, mouse, endogenous; immunoprecipitated with anti-gremlin antibody; Seen as 20-24 kDa monomers and 40-44 kDa dimers under non-reducing conditions; source: endogenous, lysates of healthy C57BL/6 murine organs; endogenous, conditioned medium of FGF2-T-MAE cells
B4: human BMP4 (ligand, UniProt P12644 293-408, looked up)
chain: SPKHHSQRARKKNKNCRRHSLYVDFSDVGWNDWIVAPPGYQAFYCHGDCPFPLADHLNSTNHAIVQTLVNSVNSSIPKACCVPTELSAISMLYLDEYDKVVLKNYQEMVVEGCGCR
notes: bone morphogenetic protein 4, human; the ELISA paragraph says only human BMP4; also called immobilized BMP4; source: bought: R&D

Data set [1] has as its target extracellular domain D1-7 of human VEGFR2 (ECD-VEGFR2) (human). Description: SPR; BIAcore X; ECD-VEGFR2 immobilized on CM5 sensorchip (0.036-0.064 pmol/mm^2); gremlin 100 ng/mL to 4 ug/mL injected in HBS-EP; equilibrium responses fitted to the Langmuir equation for monovalent binding. (In general: SPR reads the build-up and loss of mass on a sensor chip optically.)
Data set [2] concerns the molecule itself. Kind of data set: non-reducing SDS-PAGE with Western blot; recombinant his-tagged gremlin purified by IMAC (and heparin-affinity chromatography), SDS-PAGE without beta-mercaptoethanol, anti-gremlin WB, silver staining. A general note: In western blotting, separated proteins are transferred to a membrane and probed.
Data set [3] deals with the molecule itself. Description: non-reducing SDS-PAGE with Western blot; conditioned medium of FGF2-T-MAE cells (treated with increasing H2O2 for 1 hour, then 4 hours fresh medium) immunoprecipitated with anti-gremlin antibody, WB under non-reducing conditions.
Data set [4] addresses T1, his-tagged gremlin^C141A mutant, rat. Kind of data set: ELISA; 96-well plates coated with 250 ng/mL of human BMP4, increasing concentrations of gremlin, bound gremlin detected with anti-gremlin antibody. Conditions: both partners purified.
Data set [5] has as its target B2. The data set is described as above. Conditions: both partners purified.

Substitutions are numbered along the chain they refer to. Names may count otherwise.

In the case of B1, in data set [1], the Kd (in general, the concentration at which binding is half-saturated) was determined as 73 nM.

Take B2: the Kd in data set [1] came to 73 nM. In addition, in data set [2], the stoichiometry N (usually a count of units in the complex or per binding partner) was 2.

Take B3: the “stoichiometry N” value in data set [3] is 2.

Turning to B4, the binding result in data set [4] and in data set [5] was “binds” in each case.

Values taken from paper PMC5085234, “Monomeric gremlin is a novel vascular endothelial growth factor receptor-2 antagonist” (Oncotarget, 2016).
